The test addresses human von Willebrand factor (VWF) (human) (UniProt P04275). Kind of test: SPR. A general note: SPR reads the build-up and loss of mass on a sensor chip optically.

As to “recombinant B-domain-deleted FVIII (rBDD FVIII) (from UniProt P00451 1668-2351) (natural protein)”, the Kd was 0.26 nM, the koff amounted to 0.00087 s⁻¹ and the kon was determined as 3.4e+06 M⁻¹ s⁻¹.

“recombinant factor VIII–Fc fusion protein (rFVIIIFc) (from UniProt P00451 1668-2351)” came in with a Kd of 0.34 nM, a koff of 0.00089 s⁻¹ and a kon of 2.6e+06 M⁻¹ s⁻¹.

In general, Kd refers to the equilibrium constant for the complex coming apart. Higher therefore signals a looser complex. The term koff denotes the first-order rate constant of dissociation. Higher therefore signals a short-lived complex. For orientation: kon means the rate constant with which the complex forms.

Values taken from paper PMC3588154.
